Patent US20040018971A1 (published 2004)

Tests used:
HLA-A*0201 [1] = biological target: T1, HLA-A*0201 (human); test: competition with 125I-labelled standard peptide 941.01 for purified HLA, gel filtration
T1 construct: also called HLA-A2.1

[2] = biological target: T2, HLA-A*0301 (purified HLA class I molecule) (human); test: competition with 125I-labelled probe peptide for purified HLA-A*0301, gel filtration
T2 construct: also called HLA-A3

HLA-A*0201 [3] = biological target: T3, HLA-A*0201 (human); test: competitive inhibition of 125I-labelled standard peptide binding to purified HLA, gel filtration
T3 construct: also called HLA-A2.1

HLA-A*0201 [4] = biological target: T4, HLA-A*0201 (human); test: inhibition of 125I-labelled standard peptide binding to purified HLA, gel filtration; ratio = IC50 of standard / IC50 of test peptide
T4 construct: also called HLA-A2.1

HLA-B*0702 = HLA-B*0702 (human); test: competition with 125I probe peptide, purified HLA
HLA-B*5401 = HLA-B*5401 (human); test: competition with 125I probe peptide, purified HLA
HLA-B*3501 = HLA-B*3501 (human); test: competition with 125I probe peptide, purified HLA
HLA-B*5101 = HLA-B*5101 (human); test: competition with 125I probe peptide, purified HLA
HLA-B*5301 = HLA-B*5301 (human); test: competition with 125I probe peptide, purified HLA

B1: HER2/neu peptide, position 338, 10 amino acids (peptide)
peptide: CARVCYGLGM
notes: also called Her2/neu.338 (10-mer)
relative binding ratio (HLA-A*0201 [1]): 0.0011 ratio (IC50 of standard peptide / IC50 of test peptide)

B2: HER2/neu peptide, position 180, 9 amino acids (ALTLIDTNR) (peptide)
peptide: ALTLIDTNR
notes: also called Her2/neu.180 9-mer
relative binding ratio [2]: 0.0004 ratio (IC50 of standard peptide / IC50 of test peptide)

B3: HER2/neu A02 supermotif peptide, position 36, 10 amino acids (peptide)
peptide: PASPETHLDM
notes: Synthetic peptide
relative binding ratio (IC50 of standard peptide / IC50 of test peptide) (HLA-A*0201 [3]): 0.0001 ratio

B4: HER2/neu peptide, position 978, 10 amino acids (peptide)
peptide: RMARDPQRFV
relative binding ratio (HLA-A*0201 [4]): 0.002 ratio to standard peptide

B5: Her2/neu.488.F1 (peptide)
peptide: FPHQALLHTA
notes: analog peptide
IC50 (HLA-B*0702): 393 nM | IC50 (HLA-B*5401): 1.3 nM | IC50 (HLA-B*3501): 379 nM | IC50 (HLA-B*5101): 4230 nM

B6: Her2/neu.488.F1I10 (peptide)
peptide: FPHQALLHTI
notes: analog peptide
IC50 (HLA-B*0702): 86 nM | IC50 (HLA-B*5401): 4 nM | IC50 (HLA-B*5301): 42 nM | IC50 (HLA-B*3501): 655 nM | IC50 (HLA-B*5101): 19 nM

B7: HER2/neu peptide, position 115, 9 amino acids (peptide)
peptide: AVLDNGDPL
notes: also called Her2/neu.115 (9-mer)
relative binding ratio (HLA-A*0201 [1]): 0.0004 ratio (IC50 of standard peptide / IC50 of test peptide)

B8: Her2/neu.282.I10 (peptide)
peptide: MPNPEGRYTI
notes: analog peptide
IC50 (HLA-B*0702): 34 nM | IC50 (HLA-B*5401): 46 nM | IC50 (HLA-B*5301): 9.3 nM | IC50 (HLA-B*3501): 111 nM | IC50 (HLA-B*5101): 13 nM

B9: Her2/neu.282.F1 (peptide)
peptide: FPNPEGRYTI
notes: analog peptide
IC50 (HLA-B*0702): 324 nM | IC50 (HLA-B*5401): 3.2 nM | IC50 (HLA-B*5301): 6.6 nM | IC50 (HLA-B*3501): 24 nM | IC50 (HLA-B*5101): 9.3 nM

B10: HER2/neu A02 supermotif peptide, position 927, 9 amino acids (peptide)
peptide: PAREIPDLL
notes: Synthetic peptide
relative binding ratio (IC50 of standard peptide / IC50 of test peptide) (HLA-A*0201 [3]): 0.0001 ratio

B11: Her2/neu.65.F1I10 (peptide)
peptide: FPTNASLSFI
notes: analog peptide
IC50 (HLA-B*0702): 120 nM | IC50 (HLA-B*5401): 53 nM | IC50 (HLA-B*5301): 85 nM | IC50 (HLA-B*3501): 424 nM | IC50 (HLA-B*5101): 23 nM

B12: HER2/neu peptide, position 948, 9 amino acids (peptide)
peptide: TIDVYMIMV
relative binding ratio (HLA-A*0201 [4]): 0.0005 ratio to standard peptide

B13: HER2/neu peptide, position 76, 10 amino acids (peptide)
peptide: DIQEVQGYVL
notes: also called Her2/neu.76 (10-mer)
relative binding ratio (HLA-A*0201 [1]): 0.0001 ratio (IC50 of standard peptide / IC50 of test peptide)

B14: HER2/neu peptide, position 840, 9 amino acids (peptide)
peptide: RLVHRDLAA
relative binding ratio (HLA-A*0201 [4]): 0.0001 ratio to standard peptide

B15: HER2/neu peptide, position 171, 9 amino acids (peptide)
peptide: DIFHKNNQL
notes: also called Her2/neu.171 (9-mer)
relative binding ratio (HLA-A*0201 [1]): 0.0002 ratio (IC50 of standard peptide / IC50 of test peptide)

B16: HER2/neu peptide, position 1159, 9 amino acids (peptide)
peptide: AARPAGATL
notes: also called Her2/neu.1159 (9-mer)
relative binding ratio (HLA-A*0201 [1]): 0.0001 ratio (IC50 of standard peptide / IC50 of test peptide)

B17: Her2/neu.315.I10 (peptide)
peptide: CPLHNQEVTI
notes: analog peptide
IC50 (HLA-B*0702): 458 nM | IC50 (HLA-B*5401): 556 nM | IC50 (HLA-B*5301): 274 nM | IC50 (HLA-B*5101): 42 nM

B18: HER2/neu A02 supermotif peptide, position 1211, 10 amino acids (peptide)
peptide: PAFSPAFDNL
notes: Synthetic peptide
relative binding ratio (IC50 of standard peptide / IC50 of test peptide) (HLA-A*0201 [3]): 0.0001 ratio

B19: HER2/neu peptide, position 1100, 10 amino acids (peptide)
peptide: SLPTHDPSPL
relative binding ratio (HLA-A*0201 [4]): 0.0059 ratio to standard peptide

B20: HER2/neu peptide, position 423, 9 amino acids (peptide)
peptide: SVFQNLQVI
relative binding ratio (HLA-A*0201 [4]): 0.0017 ratio to standard peptide

B21: HER2/neu peptide, position 1242, 10 amino acids (peptide)
peptide: TAENPEYLGL
relative binding ratio (HLA-A*0201 [4]): 0.0001 ratio to standard peptide

B22: HER2/neu peptide, position 34, 10 amino acids (peptide)
peptide: RLPASPETHL
relative binding ratio (HLA-A*0201 [4]): 0.0001 ratio to standard peptide

B23: Her2/neu.65.F1 (9-mer) (peptide)
peptide: FPTNASLSF
notes: analog peptide
IC50 (HLA-B*0702): 1.1 nM | IC50 (HLA-B*5401): 556 nM | IC50 (HLA-B*5301): 6.2 nM | IC50 (HLA-B*3501): 7.9 nM | IC50 (HLA-B*5101): 85 nM

B24: Her2/neu.65.F1I9 (peptide)
peptide: FPTNASLSI
notes: analog peptide
IC50 (HLA-B*0702): 4.6 nM | IC50 (HLA-B*5401): 2.8 nM | IC50 (HLA-B*5301): 14 nM | IC50 (HLA-B*3501): 300 nM | IC50 (HLA-B*5101): 8.7 nM

B25: HER2/neu peptide, position 933, 9 amino acids (peptide)
peptide: DLLEKGERL
notes: also called Her2/neu.933 (9-mer)
relative binding ratio (HLA-A*0201 [1]): 0.0002 ratio (IC50 of standard peptide / IC50 of test peptide)

B26: HER2/neu peptide, position 647, 9 amino acids (peptide)
peptide: RASPLTSII
relative binding ratio (HLA-A*0201 [4]): 0.0002 ratio to standard peptide

B27: HER2/neu peptide, position 1089, 10 amino acids (peptide)
peptide: DLGMGAAKGL
notes: also called Her2/neu.1089 (10-mer)
relative binding ratio (HLA-A*0201 [1]): 0.0001 ratio (IC50 of standard peptide / IC50 of test peptide)

B28: HER2/neu A02 supermotif peptide, position 850, 10 amino acids (peptide)
peptide: NVLVKSPNHV
notes: Synthetic peptide
relative binding ratio (IC50 of standard peptide / IC50 of test peptide) (HLA-A*0201 [3]): 0.0001 ratio

B29: HER2/neu A02 supermotif peptide, position 745, 10 amino acids (peptide)
peptide: NVKIPVAIKV
notes: Synthetic peptide
relative binding ratio (IC50 of standard peptide / IC50 of test peptide) (HLA-A*0201 [3]): 0.0001 ratio

B30: HER2/neu peptide, position 653, 10 amino acids (peptide)
peptide: SIISAVVGIL
relative binding ratio (HLA-A*0201 [4]): 0.0002 ratio to standard peptide
